T1: cIL-22-His (canine IL-22 with a His Tag) (canine)
T1 construct: also called cILHIS
T1 chain: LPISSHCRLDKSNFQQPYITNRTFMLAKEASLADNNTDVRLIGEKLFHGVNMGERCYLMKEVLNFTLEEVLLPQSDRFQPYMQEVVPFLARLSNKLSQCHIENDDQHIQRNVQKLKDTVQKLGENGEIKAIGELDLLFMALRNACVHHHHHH

B1: canine IL-22RA1-FcB fusion protein (extracellular domain of canine IL-22RA1 with canine IgG-B Fc) (Fc fusion)
chain: AEDTSDLLQYVKFQSSNFENILTWDSGLESAPDVVYSVEYKTYGKKEWLAKEGCQRITRKSCNLTTETGNHTEHYYARVTAVSAGGRSATKMTDRFSSMQQTTIKPPDVTCIPKVRSIQMIVHPTSTPIHAEDGHRLTLEDIFQDLFYRLELQVNHTYQMHLGGKQRDYEFIGLSPDTEFLGTITISVPNFFKESAPYVCRVKTLPDRTWTGGGGSGGGGSPKRENGRVPRPPDCPKCPAPEMLGGPSVFIFPPKPKDTLLIARTPEVTCVVVALDPEDPEVQISWFVDGKQMQTAKTQPREEQFAGTYRVVSVLPIGHQDWLKGKQFTCKVNNKALPSPIERTISKARGQAHQPSVYVLPPSREELSKNTVSLTCLIKDFFPPDIDVEWQSNGQQEPESKYRTTPPQLDEDGSYFLYSKLSVDKSRWQRGDTFICAVMHEALHNHYTQESLSHSPG
notes: also called cIL-22RA1-Fc fusion protein; canine IL-22RA1-Fc fusion protein
B2: canine IL-22BP-FcB fusion protein (canine IL-22BP (IL-22RA2) with canine IgG-B Fc) (Fc fusion)
chain: TQSAYESLKPQRVHFQSRNFHNILHWQPGRACTSNGSVYFVQYKMYGQRQWKNKEDCWGILECFCDLTNETSDIQEPYYGRVRTTSAGIHSGWTMTQRFTPWWETKIDPPIINITQVNGSLLVILHAPSLPYRDQKGKNVSIENYYELLYRVFIINNSLEKEQKVYEGAHRIVEIGALAPHTGYCVVAEMYQPMLDRRSPRSEERCMELPGGGGSGGGGSPKRENGRVPRPPDCPKCPAPEMLGGPSVFIFPPKPKDTLLIARTPEVTCVVVALDPEDPEVQISWFVDGKQMQTAKTQPREEQFAGTYRVVSVLPIGHQDWLKGKQFTCKVNNKALPSPIERTISKARGQAHQPSVYVLPPSREELSKNTVSLTCLIKDFFPPDIDVEWQSNGQQEPESKYRTTPPQLDEDGSYFLYSKLSVDKSRWQRGDTFICAVMHEALHNHYTQESLSHSPG
notes: also called cIL-22BP-Fc fusion protein; canine IL-22BP-Fc fusion protein

Legend:
[1] = target: canine IL-31RA ECD-10His (canine); assay: ELISA: IL-31RA ECD coated at 10 ug/mL, biotinylated IL-31 titrated 3-fold from 10 ug/mL, HRP-streptavidin
[2] = target: T1, cIL-22-His (canine IL-22 with a His Tag); assay: ELISA: cIL-22-His coated, Fc fusion titrated from 10 ug/mL, anti-dog IgG (Fc)-HRP

Chain of canine IL-31RA ECD-10His (canine) (chain, as listed by the source limits assumed): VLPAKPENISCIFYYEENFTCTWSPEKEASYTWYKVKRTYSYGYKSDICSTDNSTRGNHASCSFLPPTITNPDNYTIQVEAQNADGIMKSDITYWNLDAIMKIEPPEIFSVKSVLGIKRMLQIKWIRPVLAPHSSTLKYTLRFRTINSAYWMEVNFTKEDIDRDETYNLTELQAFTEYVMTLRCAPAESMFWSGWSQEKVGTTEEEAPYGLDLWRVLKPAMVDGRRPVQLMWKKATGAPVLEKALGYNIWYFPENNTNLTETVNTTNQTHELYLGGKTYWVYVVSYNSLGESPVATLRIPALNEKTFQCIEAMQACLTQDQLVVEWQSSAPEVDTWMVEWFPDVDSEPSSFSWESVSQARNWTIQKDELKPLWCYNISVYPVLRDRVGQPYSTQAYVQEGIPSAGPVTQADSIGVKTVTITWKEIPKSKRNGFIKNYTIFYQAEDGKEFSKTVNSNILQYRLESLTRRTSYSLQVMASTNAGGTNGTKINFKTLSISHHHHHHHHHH

Row | Molecule | EC50 [1] [µg/mL] | binding result [2]
1 | biotinylated canine IL-31 (ligand) | 0.368 | 
2 | B1 |  | binds
3 | B2 |  | binds
